Data taken from the supplement of paper PMC12783771.
± gives the standard deviation of the averaged measurements.

B1: library; numbered along this chain (parent)
chain: MNIQIGELAKRTACPVVTIRFYEQEGLLPPPGRSRGNFRLYGEEHVERLQFIRHCRSLDMPLSDVRTLLSYRKRPDQDCGEVNMLLDEHIRQVESRIGALLELKHHLVELREACSGARPAQSCGILQGLSDCVCDTRGTTAHPSD

Tests used:
[1] = variants of: B1; experiment: sfGFP reporter fluorescence (15 h) (µM FITC); higher = higher leak; details: library round: Round 0; ligand: none
In short: (§1)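 With 1 µM lead chloride, 30 µM zinc acetate or no metal present, 1 μL Echo-assembled reactions were incubated 15 hr at 30 °C. They contained BL21 Star (DE3) PANOx-SP extract, 30 μg/mL GamS, the pPbrR-sfGFP reporter plasmid and PCR-made linear PbrR templates Echo-normalized to 5 nM. Endpoint sfGFP fluorescence was read on a Synergy Neo2 at 485/528 nm against FITC standards in 50 mM sodium borate pH 8.5. Results are expressed as µM FITC.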

[2] = variants of: B1; experiment: sfGFP reporter fluorescence (15 h) (µM FITC); higher = stronger transcriptional activation; details: library round: Round 0
In short: as §1

With MNIQIGELAKRTACPVVTIDFYEQEGLLPPPGRSRGNFRLYGEEHVERLQFIRHCRSLDMPLSDVRTLLSYRKRPDQDCGEVNMLLDEHIRQVESRIGALLELKHHLVELREACSGARPAQSCGILQGLSDCVCDTRGTTAHPSD [R20D] the sfGFP reporter fluorescence [1] was 0.0614 ± 0.0023, the sfGFP reporter fluorescence ([2]; ligand: 1 µM Pb) was 0.0616 ± 0.0015 and the sfGFP reporter fluorescence ([2]; ligand: 30 µM Zn) was 0.0687 ± 0.0013.

MNIQIGELAKRTACPVVTIRFYEQEGLLPPPGRSRGNFRLYGEEHVERLQFIRHCRSLDMPLSDVRTLLSYRKRPDQDCGEVNMLLDEHIRQVESRIGALLELKHHLVELYEACSGARPAQSCGILQGLSDCVCDTRGTTAHPSD [R111Y] showed a sfGFP reporter fluorescence [1] of 0.0566 ± 0.0023, a sfGFP reporter fluorescence ([2]; ligand: 1 µM Pb) of 0.0651 ± 0.00078 and a sfGFP reporter fluorescence ([2]; ligand: 30 µM Zn) of 0.28 ± 0.029.

Work on MNIQIGELAKRTACPVVTIRFYEQEGLLPPPGRSRGNFRLYGEEHVERLQFIRHCRSLDMPLSEVRTLLSYRKRPDQDCGEVNMLLDEHIRQVESRIGALLELKHHLVELREACSGARPAQSCGILQGLSDCVCDTRGTTAHPSD [D64E] yielded a sfGFP reporter fluorescence [1] of 0.0581 ± 0.0018, a sfGFP reporter fluorescence ([2]; ligand: 1 µM Pb) of 0.061 ± 0.0013 and a sfGFP reporter fluorescence ([2]; ligand: 30 µM Zn) of 0.1552 ± 0.00078.

MNIQITELAKRTACPVVTIRFYEQEGLLPPPGRSRGNFRLYGEEHVERLQFIRHCRSLDMPLSDVRTLLSYRKRPDQDCGEVNMLLDEHIRQVESRIGALLELKHHLVELREACSGARPAQSCGILQGLSDCVCDTRGTTAHPSD [G6T] gave a sfGFP reporter fluorescence [1] of 0.0594 ± 0.0021, a sfGFP reporter fluorescence ([2]; ligand: 1 µM Pb) of 0.0608 ± 0.0015 and a sfGFP reporter fluorescence ([2]; ligand: 30 µM Zn) of 0.0799 ± 0.0047.

MNIQIGELAKRTACPVVTIRFYEQEGLLPPPGRSRGNFRLYGEEHVERLQFIRHCRSLDMPLSDVRTLLSYRKRPDQDCGEVNMLLDEYIRQVESRIGALLELKHHLVELREACSGARPAQSCGILQGLSDCVCDTRGTTAHPSD [H89Y] showed a sfGFP reporter fluorescence [1] of 0.0596 ± 0.0018, a sfGFP reporter fluorescence ([2]; ligand: 1 µM Pb) of 0.0574 ± 0.0018 and a sfGFP reporter fluorescence ([2]; ligand: 30 µM Zn) of 0.0566 ± 0.0023.

In the case of MNIQIGELAKRTACPVVTIRFYEQEGLLPPPGRSRGNFRLYGEEHVERLQFIRHCRSLDMPLSDVRTLLSYRKRPDQDCGEVNMLLDEHIRQVESRIGALLELKHHLVELREACSGARPAQSCGILQGASDCVCDTRGTTAHPSD [L129A], the sfGFP reporter fluorescence [1] is reported as 0.0572 ± 0.0021, the sfGFP reporter fluorescence ([2]; ligand: 1 µM Pb) is reported as 0.0561 ± 0.001 and the sfGFP reporter fluorescence ([2]; ligand: 30 µM Zn) is reported as 0.0574 ± 0.0018.

Work on MNIQIGELAKRTACPVVTIRFYEQEGLLPPPGRSRGNFRLYGEEHVERLQFIRHCRSLDMPLSDVRTLLSYRKRPDQDCGEVNMLLDEHIRQVESRIGALLELKHHLVELREACSGARPAQSCGILQGPSDCVCDTRGTTAHPSD [L129P] yielded a sfGFP reporter fluorescence [1] of 0.05387 ± 0.00052, a sfGFP reporter fluorescence ([2]; ligand: 1 µM Pb) of 0.055 ± 0.0036 and a sfGFP reporter fluorescence ([2]; ligand: 30 µM Zn) of 0.0491 ± 0.0026.

Work on MNIQIGELAKRTACPVVTIRFYEQEGLLPPPGRSRGNFRLYGEEHVERLQFIRHCRSLDMPLSDVRTLLSYRKRPDQDCGEVNMLLDEHIRQVESRIGALLELKHHLVELREACSGARPAQSCGILQWLSDCVCDTRGTTAHPSD [G128W] yielded a sfGFP reporter fluorescence [1] of 0.07165 ± 0.00026, a sfGFP reporter fluorescence ([2]; ligand: 1 µM Pb) of 0.248 ± 0.028 and a sfGFP reporter fluorescence ([2]; ligand: 30 µM Zn) of 1.39 ± 0.098.

In the case of MNIQIGELAKRTACPVVTIRFYEQEGLLPPPGRSRGNFRLYGEEHVERLQFIRHCRSLDMPLSDVRTLLSYRKRPDQDCGEVNMLLDEHIRQVESRIGALLELKHHLVELREACSGARPAQSCGILQGLSECVCDTRGTTAHPSD [D131E], the sfGFP reporter fluorescence [1] is reported as 0.059 ± 0.0021, the sfGFP reporter fluorescence ([2]; ligand: 1 µM Pb) is reported as 0.0825 ± 0.0042 and the sfGFP reporter fluorescence ([2]; ligand: 30 µM Zn) is reported as 0.657 ± 0.043.

Variant MNIQIGELAKRTACPVVTIRFYEQEGLLPPPGRSRGNFRLYGEEHVERLQFIRHCRSLDMPLSDVRTLLSYRKRPDQDCGEVNMLLDEHIRQVESRIGALLELKHHLVTLREACSGARPAQSCGILQGLSDCVCDTRGTTAHPSD [E109T] has a sfGFP reporter fluorescence [1] of 0.0625 ± 0.0018, a sfGFP reporter fluorescence ([2]; ligand: 1 µM Pb) of 0.0935 ± 0.0026 and a sfGFP reporter fluorescence ([2]; ligand: 30 µM Zn) of 1.71 ± 0.12.

For MNIQIGELAKRTACPVVTIRFYEQEGLLPPPGRSRGNFRLYGEEHVERLQFIRHCRSLDMPLSDVRTLLSYRKRPDQDCGEVNMLLDEHIRQVESRIGALLELKHHLVALREACSGARPAQSCGILQGLSDCVCDTRGTTAHPSD [E109A], the sfGFP reporter fluorescence [1] was 0.0636 ± 0.00078, the sfGFP reporter fluorescence ([2]; ligand: 1 µM Pb) was 0.0804 ± 0.0039 and the sfGFP reporter fluorescence ([2]; ligand: 30 µM Zn) was 0.883 ± 0.35.

For MNIQIGELAKRTACPVVTIRFYEQEGLLPPPGRSRGNFRLYGEEHVERLQFIRHCRSLDMPLSDVRTLLSYRKRPDQDCGEVNMLLDEHIRQVESRIGALLELLHHLVELREACSGARPAQSCGILQGLSDCVCDTRGTTAHPSD [K104L], the sfGFP reporter fluorescence [1] was 0.0592 ± 0.0049, the sfGFP reporter fluorescence ([2]; ligand: 1 µM Pb) was 0.135 ± 0.03 and the sfGFP reporter fluorescence ([2]; ligand: 30 µM Zn) was 1.11 ± 0.054.

Work on MNIQIGELAKRTACPVVTIRFYEQEGLLPPPGRSRGNFRLYGEEHVERLQFIRHCRSLDMPLSDVRTLLSYRKRPDQDCGEVNMLLDEHIRQVESRIGALLELSHHLVELREACSGARPAQSCGILQGLSDCVCDTRGTTAHPSD [K104S] yielded a sfGFP reporter fluorescence [1] of 0.0612 ± 0.0021, a sfGFP reporter fluorescence ([2]; ligand: 1 µM Pb) of 0.092 ± 0.02 and a sfGFP reporter fluorescence ([2]; ligand: 30 µM Zn) of 1 ± 0.052.

In the case of MNIQIGELAKRTACPRVTIRFYEQEGLLPPPGRSRGNFRLYGEEHVERLQFIRHCRSLDMPLSDVRTLLSYRKRPDQDCGEVNMLLDEHIRQVESRIGALLELKHHLVELREACSGARPAQSCGILQGLSDCVCDTRGTTAHPSD [V16R], the sfGFP reporter fluorescence [1] is reported as 0.0671 ± 0.001, the sfGFP reporter fluorescence ([2]; ligand: 1 µM Pb) is reported as 0.132 ± 0.0057 and the sfGFP reporter fluorescence ([2]; ligand: 30 µM Zn) is reported as 2.03 ± 0.3.
